Source: paper PMC10641528, “A conserved, noncanonical insert in FIS1 mediates TBC1D15 and DRP1 recruitment for mitochondrial fission” (The Journal of Biological Chemistry, 2023)
Residue numbers refer to the chain shown, from its start. Names may count otherwise. Blank lines part the entries; values can stand above or below the molecule they belong to.

Assays:
[1] = target: DRP1, endogenous (dynamin family GTPase) (human (endogenous in HCT116)) (UniProt O00429); assay: co-IP; endogenous DRP1 immunoprecipitated (mouse monoclonal sc-271583 on protein A/G beads) from lysates of HCT116 cells transfected with pcDNA or pcDNA-FIS1 variants and cross-linked with 0.25% PFA; FIS1 blotted; scored as ratio of immunoprecipitated to input FIS1; lysis buffer 10 mM Tris/Cl pH 7.5, 150 mM NaCl, 0.5 mM EDTA, 0.5% NP-40 substitute
[2] = target: T1, DRP1, endogenous (dynamin family GTPase) (human (endogenous in HCT116), UniProt O00429 1-736); assay: as above; conditions: partners not purified
T1 construct: DRP1 endogenous in HCT116 cells; Immunoprecipitated with mouse monoclonal DRP1 antibody sc-271583; source: endogenous, HCT116 lysate (PFA cross-linked cells)
T1 sequence (O00429 whole entry): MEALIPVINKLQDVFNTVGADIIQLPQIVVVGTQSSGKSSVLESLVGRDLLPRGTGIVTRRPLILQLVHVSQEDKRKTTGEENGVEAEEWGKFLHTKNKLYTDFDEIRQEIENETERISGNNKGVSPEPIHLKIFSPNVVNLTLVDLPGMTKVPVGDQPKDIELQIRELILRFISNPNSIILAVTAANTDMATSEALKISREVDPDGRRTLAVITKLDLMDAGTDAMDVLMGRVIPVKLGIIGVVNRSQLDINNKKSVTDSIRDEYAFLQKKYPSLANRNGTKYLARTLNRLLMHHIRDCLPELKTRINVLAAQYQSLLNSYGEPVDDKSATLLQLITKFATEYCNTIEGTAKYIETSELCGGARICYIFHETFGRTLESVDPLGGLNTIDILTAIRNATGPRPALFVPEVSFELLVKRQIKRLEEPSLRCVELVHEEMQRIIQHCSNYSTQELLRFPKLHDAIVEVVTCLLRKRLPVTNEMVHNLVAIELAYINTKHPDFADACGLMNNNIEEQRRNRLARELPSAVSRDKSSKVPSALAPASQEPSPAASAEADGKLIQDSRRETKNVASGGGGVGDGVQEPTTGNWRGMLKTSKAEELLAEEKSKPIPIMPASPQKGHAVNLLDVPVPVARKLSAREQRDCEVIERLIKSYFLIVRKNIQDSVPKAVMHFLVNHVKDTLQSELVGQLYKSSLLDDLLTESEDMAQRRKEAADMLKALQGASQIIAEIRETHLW

Chain of DRP1, endogenous (dynamin family GTPase) (human (endogenous in HCT116)) (O00429 whole entry): as above

Molecule: FIS1 5LA variant (five conserved TPR Leu residues replaced with Ala) (from UniProt Q9Y3D6 1-145) (natural protein)
ratio of immunoprecipitated to input FIS1 [1]: 3.9

B1: Mitochondrial fission protein 1 (FIS1), wildtype, ectopically expressed from pcDNA-FIS1 WT (natural protein, human)
chain: MEAVLNELVSVEDLLKFEKKFQSEKAAGSVSKSTQFEYAWCLVRSKYNDDIRKGIVLLEELLPKGSKEEQRDYVFYLAVGNYRLKEYEKALKYVRGLLQTEPQNNQAKELERLIDKAMKKDGLVGMAIVGGMALGVAGLAGLIGL
notes: human mitochondrial fission protein 1 (FIS1), wildtype, expressed from pcDNA; No tag is mentioned; detected with an anti-FIS1 antibody; also called WT FIS1; source: HCT116, transfected, in lysate (PFA cross-linked cells)
ratio of immunoprecipitated to input FIS1 [2]: 0.7 ± 0.1

B4: FIS1 ΔSKY variant (SKY insert deleted) (natural protein, human)
chain: MEAVLNELVSVEDLLKFEKKFQSEKAAGSVSKSTQFEYAWCLVRNDDIRKGIVLLEELLPKGSKEEQRDYVFYLAVGNYRLKEYEKALKYVRGLLQTEPQNNQAKELERLIDKAMKKDGLVGMAIVGGMALGVAGLAGLIGL
notes: human FIS1 with S45, K46, Y47 deleted, expressed from pcDNA; source: HCT116, transfected, in lysate (PFA cross-linked cells)
ratio of immunoprecipitated to input FIS1 [2]: 1.3 ± 0.9

Further lines, results first:

ratio of immunoprecipitated to input FIS1 [2]: 0.7 ± 0.3
B2: FIS1 D49G variant (natural protein, human)
chain: B1 chain with D49G
notes: human FIS1 that keeps the SKY insert, with D49 replaced by Gly, expressed from pcDNA; source: HCT116, transfected, in lysate (PFA cross-linked cells)

ratio of immunoprecipitated to input FIS1 [2]: 0.9 ± 0.1
B3: FIS1 AAA variant (SKY insert substituted with three alanines) (natural protein, human)
chain: B1 chain with S45A, K46A, Y47A
notes: human FIS1 with S45, K46, Y47 replaced by three Ala, expressed from pcDNA; also called AAA FIS1 variant; source: HCT116, transfected, in lysate (PFA cross-linked cells)

ratio of immunoprecipitated to input FIS1 [2]: 0.9 ± 0.2
B5: FIS1 ΔSKYD49G variant (SKY insert deleted, D49 replaced by Gly) (natural protein, human)
chain: B4 chain with D46G
notes: human FIS1 with S45, K46, Y47 deleted and D49 replaced by Gly (wildtype numbering), expressed from pcDNA; source: HCT116, transfected, in lysate (PFA cross-linked cells)
